The source of these data is PMC10681739, “High-throughput data and modeling reveal insights into the mechanisms of cooperative DNA-binding by transcription factor proteins”.

In one data set the target is RUNX1 (Homo sapiens, UniProt Q01196). As to the kind of experiment: gcPBM; 2 nM RUNX1. As to conditions: tags: N-terminal GST (pDEST15), kept (PMC6008103); label: surface-attached array probe.
In a further data set the target is ETS1:RUNX1 (Homo sapiens, UniProt P14921;Q01196 full;full). Briefly: gcPBM; 1 nM ETS1 + 25 nM RUNX1, anti-ETS1 signal, normalised. The settings on record: tags: N-terminal GST (pDEST15), kept (PMC6008103); copies: 1;1; label: surface-attached array probe.
ETS1:RUNX1, sequence (P14921 whole entry, chain 1 of 2): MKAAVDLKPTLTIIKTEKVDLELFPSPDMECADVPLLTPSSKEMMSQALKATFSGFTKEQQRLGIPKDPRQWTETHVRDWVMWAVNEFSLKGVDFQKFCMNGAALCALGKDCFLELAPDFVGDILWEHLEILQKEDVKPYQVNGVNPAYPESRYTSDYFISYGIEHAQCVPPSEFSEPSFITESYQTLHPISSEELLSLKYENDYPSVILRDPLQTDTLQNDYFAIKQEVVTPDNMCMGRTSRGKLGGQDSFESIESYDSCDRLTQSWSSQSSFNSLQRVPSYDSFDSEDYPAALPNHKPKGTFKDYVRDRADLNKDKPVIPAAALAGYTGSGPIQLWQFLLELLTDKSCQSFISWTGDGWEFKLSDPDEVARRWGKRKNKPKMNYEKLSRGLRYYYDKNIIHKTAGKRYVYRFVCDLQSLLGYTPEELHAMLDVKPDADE
ETS1:RUNX1, sequence (Q01196 whole entry, chain 2 of 2): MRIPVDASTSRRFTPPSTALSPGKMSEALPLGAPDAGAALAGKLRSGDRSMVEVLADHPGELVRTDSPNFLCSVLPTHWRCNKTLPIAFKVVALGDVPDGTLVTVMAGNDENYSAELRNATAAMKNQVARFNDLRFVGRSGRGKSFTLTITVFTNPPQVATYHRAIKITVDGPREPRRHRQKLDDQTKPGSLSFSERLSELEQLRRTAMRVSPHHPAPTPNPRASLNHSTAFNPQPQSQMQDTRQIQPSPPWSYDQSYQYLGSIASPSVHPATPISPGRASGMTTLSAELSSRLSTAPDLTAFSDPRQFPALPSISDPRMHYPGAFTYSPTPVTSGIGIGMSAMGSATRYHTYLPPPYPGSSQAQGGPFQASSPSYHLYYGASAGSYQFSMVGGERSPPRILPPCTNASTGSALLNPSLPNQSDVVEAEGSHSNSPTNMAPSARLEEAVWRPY

RUNX1, sequence (Q01196 whole entry): as the sequence (Q01196 whole entry, chain 2 of 2) above

B1: Table S3 C row 199 (dsDNA)
DNA 1: TATCTGAGGAGTGGCAGGAAGTCTGGGGTGACTTTT
DNA 2: AAAAGTCACCCCAGACTTCCTGCCACTCCTCAGATA
For B1, in the data set with RUNX1, the binding signal was 815 PBM fluorescence, median of replicate spots.

B2: Table S3 C row 30 (dsDNA)
DNA 1: ACCGACCTGCCTCGCCGGAACTCCTCGCGCATCGCC
DNA 2: GGCGATGCGCGAGGAGTTCCGGCGAGGCAGGTCGGT
Take B2: the binding signal with RUNX1 was 816 PBM fluorescence, median of replicate spots.

B3: Table S3 C row 139 (dsDNA)
DNA 1: TAAATGGAAAGCATACATCCTGTTTTTTTGCTGTAG
DNA 2: CTACAGCAAAAAAACAGGATGTATGCTTTCCATTTA
For the molecule B3, the binding signal with RUNX1 is 802 PBM fluorescence, median of replicate spots.

B4: Table S3 C row 134 (dsDNA)
DNA 1: GGGCAGAAGCACACAAGGAAGTGTTTCTGGGACAGA
DNA 2: TCTGTCCCAGAAACACTTCCTTGTGTGCTTCTGCCC
Regarding B4, the binding signal in the data set with RUNX1 was 813 PBM fluorescence, median of replicate spots.

B5: Table S2 A row 1371 (dsDNA)
DNA 1: GAACCTGGGAGGCGGAAGTTGCGGTTAGCCGAGATC
DNA 2: GATCTCGGCTAACCGCAACTTCCGCCTCCCAGGTTC
For B5, the binding signal with ETS1:RUNX1 was 64700 PBM fluorescence, median of replicate spots.

B6: Table S3 C row 68 (dsDNA)
DNA 1: CCCTATTCGCAGAGGAGGAAGTGGAGGCTCTCCAGG
DNA 2: CCTGGAGAGCCTCCACTTCCTCCTCTGCGAATAGGG
B6: the binding signal with RUNX1 is 829 PBM fluorescence, median of replicate spots.

B7: Table S3 C row 2 (dsDNA)
DNA 1: TGGACCTAGGGCAGACGGAAGTTTTGGGAGGGCCGG
DNA 2: CCGGCCCTCCCAAAACTTCCGTCTGCCCTAGGTCCA
As to B7, the binding signal with RUNX1 is 810 PBM fluorescence, median of replicate spots.

B8: Table S3 C row 141 (dsDNA)
DNA 1: CTCCAACCCTTGTCCCTTCCGCCTGCCACTGCAGGT
DNA 2: ACCTGCAGTGGCAGGCGGAAGGGACAAGGGTTGGAG
With B8, the binding signal with RUNX1 was 850 PBM fluorescence, median of replicate spots.

B9: Table S2 A row 1184 (dsDNA)
DNA 1: GAAGCTCCCCAAACAGGATGTGGTTAGGGAGAGGGG
DNA 2: CCCCTCTCCCTAACCACATCCTGTTTGGGGAGCTTC
With B9, the binding signal in the data set with ETS1:RUNX1 was 58300 PBM fluorescence, median of replicate spots.

B10: Table S3 C row 37 (dsDNA)
DNA 1: ACCCTCTGTTTTGAGCTTCCGGTAGAGGCTGGTAGG
DNA 2: CCTACCAGCCTCTACCGGAAGCTCAAAACAGAGGGT
Consider B10, for which, in the data set with RUNX1, the binding signal is 852 PBM fluorescence, median of replicate spots.

B11: Table S3 C row 175 (dsDNA)
DNA 1: CTGCGCGGCCCACCCCGGATGTCAGCCCCACGCGCC
DNA 2: GGCGCGTGGGGCTGACATCCGGGGTGGGCCGCGCAG
As to B11, the binding signal with RUNX1 is 823 PBM fluorescence, median of replicate spots.

B12: Table S3 C row 186 (dsDNA)
DNA 1: GCTTTCTGGACTACACTTCCCAGAAGCCTCTAGGCC
DNA 2: GGCCTAGAGGCTTCTGGGAAGTGTAGTCCAGAAAGC
On to B12, for which, in the data set with RUNX1, the binding signal is 826 PBM fluorescence, median of replicate spots.

B13: Table S3 C row 34 (dsDNA)
DNA 1: TTACGGCAAGCCTCACTTCCGGTCTGAACATTACGG
DNA 2: CCGTAATGTTCAGACCGGAAGTGAGGCTTGCCGTAA
Take B13: in the data set with RUNX1, the binding signal was 808 PBM fluorescence, median of replicate spots.

B14: Table S3 C row 63 (dsDNA)
DNA 1: GCACTGAGGCTGACCCGGAAGTTTAAATTACGCTCC
DNA 2: GGAGCGTAATTTAAACTTCCGGGTCAGCCTCAGTGC
As to B14, the binding signal in the data set with RUNX1 is 812 PBM fluorescence, median of replicate spots.

B15: Table S3 C row 183 (dsDNA)
DNA 1: CGCCCCAATGTTCGGCGGAAGGGAGGGAGGGTCTCC
DNA 2: GGAGACCCTCCCTCCCTTCCGCCGAACATTGGGGCG
B15: in the data set with RUNX1, the binding signal is 835 PBM fluorescence, median of replicate spots.

B16: Table S3 C row 60 (dsDNA)
DNA 1: GGGGCTACTCGCAACAGGAAGTTCGGCCCTTAAAAA
DNA 2: TTTTTAAGGGCCGAACTTCCTGTTGCGAGTAGCCCC
Regarding B16, the binding signal with RUNX1 was 839 PBM fluorescence, median of replicate spots.

B17: Table S3 C row 42 (dsDNA)
DNA 1: CTTTGGCAGCAAGAACATCCGTTCTCTGTTCTTTGC
DNA 2: GCAAAGAACAGAGAACGGATGTTCTTGCTGCCAAAG
With B17, the binding signal in the data set with RUNX1 was 821 PBM fluorescence, median of replicate spots.

B18: Table S3 C row 88 (dsDNA)
DNA 1: TCTCACGTAGACGCGCGGAAACACTAACGAGTTGAA
DNA 2: TTCAACTCGTTAGTGTTTCCGCGCGTCTACGTGAGA
For the molecule B18, the binding signal in the data set with RUNX1 was 840 PBM fluorescence, median of replicate spots.

B19: Table S2 A row 1460 (dsDNA)
DNA 1: TAGCCACTAACCGGAAACGTTAAACCACAGCTCCGT
DNA 2: ACGGAGCTGTGGTTTAACGTTTCCGGTTAGTGGCTA
On to B19, for which the binding signal with ETS1:RUNX1 was 56100 PBM fluorescence, median of replicate spots.

B20: Table S3 C row 55 (dsDNA)
DNA 1: GGGTTCATGTTTAGCAGGAAGTTGAAATGACTCACC
DNA 2: GGTGAGTCATTTCAACTTCCTGCTAAACATGAACCC
Consider B20, for which the binding signal with RUNX1 was 803 PBM fluorescence, median of replicate spots.

B21: Table S3 C row 158 (dsDNA)
DNA 1: ACAAAAAAACCCTACCTTCCGCCATGTCTGGCCCGG
DNA 2: CCGGGCCAGACATGGCGGAAGGTAGGGTTTTTTTGT
Consider B21, for which the binding signal with RUNX1 is 847 PBM fluorescence, median of replicate spots.

B22: Table S3 C row 64 (dsDNA)
DNA 1: CTCCATCACTGTCGGAGGAAGTGGCATGCAGAGTGG
DNA 2: CCACTCTGCATGCCACTTCCTCCGACAGTGATGGAG
As for B22, the binding signal with RUNX1 was 818 PBM fluorescence, median of replicate spots.

B23: Table S3 C row 136 (dsDNA)
DNA 1: GAACTCAGTACAGGCCGGAAGTCGGGGTACGGGGCC
DNA 2: GGCCCCGTACCCCGACTTCCGGCCTGTACTGAGTTC
As to B23, the binding signal with RUNX1 is 841 PBM fluorescence, median of replicate spots.

B24: Table S3 C row 115 (dsDNA)
DNA 1: GCCACCAGAGGGCGCCGGAAGTCCTGACCCATTGTC
DNA 2: GACAATGGGTCAGGACTTCCGGCGCCCTCTGGTGGC
For B24, the binding signal with RUNX1 was 838 PBM fluorescence, median of replicate spots.

B25: Table S3 C row 7 (dsDNA)
DNA 1: ACCCCGACGCAGCCTGGGAAGTGTAGTCCTCTCTGC
DNA 2: GCAGAGAGGACTACACTTCCCAGGCTGCGTCGGGGT
As for B25, the binding signal in the data set with RUNX1 is 822 PBM fluorescence, median of replicate spots.

B26: Table S3 C row 67 (dsDNA)
DNA 1: AAAAAAAAAAAAAAAGTTCCGGCCGGGCTGCGCCTC
DNA 2: GAGGCGCAGCCCGGCCGGAACTTTTTTTTTTTTTTT
In the case of B26, in the data set with RUNX1, the binding signal is 810 PBM fluorescence, median of replicate spots.

B27: Table S3 C row 177 (dsDNA)
DNA 1: TCTCCTACTCCTGCGCGGATGCTCTAGGCCGCTTGC
DNA 2: GCAAGCGGCCTAGAGCATCCGCGCAGGAGTAGGAGA
For B27, in the data set with RUNX1, the binding signal was 846 PBM fluorescence, median of replicate spots.

B28: Table S3 C row 168 (dsDNA)
DNA 1: CAGAAGTCCCGACCCCATCCTGCCACGCCTCAGCGT
DNA 2: ACGCTGAGGCGTGGCAGGATGGGGTCGGGACTTCTG
B28: in the data set with RUNX1, the binding signal is 810 PBM fluorescence, median of replicate spots.

B29: Table S3 C row 73 (dsDNA)
DNA 1: CCCAGATCACATGACAGGAAGGCAAAGTCCTCAGGT
DNA 2: ACCTGAGGACTTTGCCTTCCTGTCATGTGATCTGGG
For B29, the binding signal in the data set with RUNX1 was 850 PBM fluorescence, median of replicate spots.

B30: Table S3 C row 125 (dsDNA)
DNA 1: TTCCATTCGATGATGCTTCCGTATGAATCCATTCAC
DNA 2: GTGAATGGATTCATACGGAAGCATCATCGAATGGAA
In the case of B30, the binding signal with RUNX1 is 844 PBM fluorescence, median of replicate spots.

B31: Table S3 C row 182 (dsDNA)
DNA 1: TCTGCAGAGGGTTCCCGGATACACCTTGCGAAGAAT
DNA 2: ATTCTTCGCAAGGTGTATCCGGGAACCCTCTGCAGA
In the case of B31, in the data set with RUNX1, the binding signal was 844 PBM fluorescence, median of replicate spots.

B32: Table S3 C row 19 (dsDNA)
DNA 1: TCCAGACCTCCCCGTCTTCCGGCTGCCCTGAACGTC
DNA 2: GACGTTCAGGGCAGCCGGAAGACGGGGAGGTCTGGA
B32: the binding signal with RUNX1 was 812 PBM fluorescence, median of replicate spots.

B33: Table S3 C row 18 (dsDNA)
DNA 1: GCTGTGATTGCCTCACTTCCTGTGTCATGTGACGCT
DNA 2: AGCGTCACATGACACAGGAAGTGAGGCAATCACAGC
As for B33, the binding signal in the data set with RUNX1 was 805 PBM fluorescence, median of replicate spots.

B34: Table S3 C row 189 (dsDNA)
DNA 1: TCGCTGATGGCGTCATTTCCGTGAGTCATCTGAGGG
DNA 2: CCCTCAGATGACTCACGGAAATGACGCCATCAGCGA
Take B34: in the data set with RUNX1, the binding signal was 823 PBM fluorescence, median of replicate spots.

B35: Table S3 C row 51 (dsDNA)
DNA 1: CACAGAGACACCAACAGGAAGAGACCAGAGAGCCAA
DNA 2: TTGGCTCTCTGGTCTCTTCCTGTTGGTGTCTCTGTG
As to B35, the binding signal in the data set with RUNX1 is 807 PBM fluorescence, median of replicate spots.

B36: Table S3 C row 196 (dsDNA)
DNA 1: GGGGTTCAGTGCCTCTTTCCGTTGGAGAGAACCTCT
DNA 2: AGAGGTTCTCTCCAACGGAAAGAGGCACTGAACCCC
B36: the binding signal with RUNX1 is 810 PBM fluorescence, median of replicate spots.

B37: Table S3 C row 171 (dsDNA)
DNA 1: AGGAGACAAGCGCCACTTCCGGCAGCGAAGTCACTT
DNA 2: AAGTGACTTCGCTGCCGGAAGTGGCGCTTGTCTCCT
For B37, the binding signal in the data set with RUNX1 is 814 PBM fluorescence, median of replicate spots.

B38: Table S3 C row 16 (dsDNA)
DNA 1: GCTAGATGAAGCCCCTTTCCTGTTGCTGCCTACATT
DNA 2: AATGTAGGCAGCAACAGGAAAGGGGCTTCATCTAGC
In the case of B38, the binding signal with RUNX1 is 818 PBM fluorescence, median of replicate spots.

B39: Table S3 C row 149 (dsDNA)
DNA 1: CTCAAGGAGGTGGGACTTCCTGCTAGGTGGGCCGTG
DNA 2: CACGGCCCACCTAGCAGGAAGTCCCACCTCCTTGAG
For the molecule B39, the binding signal with RUNX1 is 829 PBM fluorescence, median of replicate spots.

B40: Table S3 C row 142 (dsDNA)
DNA 1: GCCCCTGCCCCAGAGAGGAAGTTCGGCCTCATCGAG
DNA 2: CTCGATGAGGCCGAACTTCCTCTCTGGGGCAGGGGC
With B40, the binding signal in the data set with RUNX1 is 827 PBM fluorescence, median of replicate spots.

B41: Table S3 C row 85 (dsDNA)
DNA 1: CAGTCTGGCCCTCCACTTCCTGTTTTTATAAATGAA
DNA 2: TTCATTTATAAAAACAGGAAGTGGAGGGCCAGACTG
Consider B41, for which, in the data set with RUNX1, the binding signal is 810 PBM fluorescence, median of replicate spots.
